For experiment [1], the target named is T1, GST-RIM2 (KIAA0751) PDZ domain 1 (human).
T1 construct: Construct RIM2, PDZ domain 1-pGEX-3X; vector sites BamH1/EcoR1, insert sites BglII/MfeI; also called GST-RIM2 PDZ domain; RIM3 (as printed once)
Put plainly: modified ELISA, plated GST-RIM2 PDZ domain, biotinylated peptide 0.001-10 µM, curve fit; Relative EC50. (In general: ELISA stands for enzyme-linked immunosorbent assay.)

The next experiment deals with T2, EGFR (UniProt P00533 25-1210).
T2 construct: also called HER1
The experiment can be described thus: immunoprecipitation with anti-EGFR from lysates of transfected 293 cells, anti-MUC1-CD immunoblot.

The target in a further experiment is FGFR3 (UniProt P22607 23-806, limits assumed). The experiment can be described thus: immunoprecipitation with anti-FGFR3 from lysates of transfected 293 cells, anti-MUC1-CD immunoblot.
Sequence of FGFR3 (P22607 23-806 limits assumed): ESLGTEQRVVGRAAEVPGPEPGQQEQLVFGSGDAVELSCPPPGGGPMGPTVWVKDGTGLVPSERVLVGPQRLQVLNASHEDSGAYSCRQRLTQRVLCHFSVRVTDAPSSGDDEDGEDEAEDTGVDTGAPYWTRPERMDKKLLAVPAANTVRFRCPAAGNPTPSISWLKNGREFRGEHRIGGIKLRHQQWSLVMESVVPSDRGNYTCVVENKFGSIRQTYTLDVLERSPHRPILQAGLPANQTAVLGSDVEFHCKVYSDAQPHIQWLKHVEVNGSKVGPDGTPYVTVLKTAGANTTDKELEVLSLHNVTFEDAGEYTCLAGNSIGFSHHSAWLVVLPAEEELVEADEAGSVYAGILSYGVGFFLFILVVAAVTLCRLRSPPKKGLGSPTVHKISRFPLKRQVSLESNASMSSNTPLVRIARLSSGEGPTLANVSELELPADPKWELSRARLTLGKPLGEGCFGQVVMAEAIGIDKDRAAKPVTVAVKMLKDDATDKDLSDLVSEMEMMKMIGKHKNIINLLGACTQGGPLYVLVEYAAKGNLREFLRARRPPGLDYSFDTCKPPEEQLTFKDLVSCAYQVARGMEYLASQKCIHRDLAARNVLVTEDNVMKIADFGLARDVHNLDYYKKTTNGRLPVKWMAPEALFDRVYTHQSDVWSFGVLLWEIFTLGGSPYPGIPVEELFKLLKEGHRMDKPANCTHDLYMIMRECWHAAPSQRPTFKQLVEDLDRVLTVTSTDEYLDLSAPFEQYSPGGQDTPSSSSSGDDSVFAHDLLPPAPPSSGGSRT
In the next experiment the target is T3, GST-ZO-1 PDZ domain 2 (human).
T3 construct: also called ZO-1 d2; ZO1 d2
T3 sequence (chain, as listed by the source): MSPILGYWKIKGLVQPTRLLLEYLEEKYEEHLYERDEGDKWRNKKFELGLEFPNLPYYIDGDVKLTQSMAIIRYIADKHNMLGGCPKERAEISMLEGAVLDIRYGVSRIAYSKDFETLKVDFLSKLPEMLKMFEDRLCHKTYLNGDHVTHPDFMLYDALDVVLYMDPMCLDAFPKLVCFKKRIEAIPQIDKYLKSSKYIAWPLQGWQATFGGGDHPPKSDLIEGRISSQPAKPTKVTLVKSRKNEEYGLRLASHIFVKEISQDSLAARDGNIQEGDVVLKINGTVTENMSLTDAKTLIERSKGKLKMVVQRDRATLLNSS
Put plainly: modified ELISA, GST-PDZ captured by anti-GST, biotinylated peptide titrated.

For experiment [2], the target named is T1, GST-RIM2 (KIAA0751) PDZ domain 1. The description is as above.
Experiment [3] concerns the target GST-LIM Mystique PDZ domain 1 (human). The experiment can be described thus: modified ELISA, GST-PDZ captured by anti-GST, biotinylated MUC1 peptide titrated, HRP-streptavidin.
Text: Titrations to determine relative EC₅₀ values: Peptide corresponding to MUC1 was then titrated against a constant amount of the PDZ domain-containing recombinant proteins identified in the first part of this example.
The target in experiment [4] is T1, GST-RIM2 (KIAA0751) PDZ domain 1. Put plainly: modified ELISA, peptide titration.

Where no end group is shown, it is not given here. Where only a bound is given, the exact number is not on record here.

T1 sequence (chain, as listed by the source): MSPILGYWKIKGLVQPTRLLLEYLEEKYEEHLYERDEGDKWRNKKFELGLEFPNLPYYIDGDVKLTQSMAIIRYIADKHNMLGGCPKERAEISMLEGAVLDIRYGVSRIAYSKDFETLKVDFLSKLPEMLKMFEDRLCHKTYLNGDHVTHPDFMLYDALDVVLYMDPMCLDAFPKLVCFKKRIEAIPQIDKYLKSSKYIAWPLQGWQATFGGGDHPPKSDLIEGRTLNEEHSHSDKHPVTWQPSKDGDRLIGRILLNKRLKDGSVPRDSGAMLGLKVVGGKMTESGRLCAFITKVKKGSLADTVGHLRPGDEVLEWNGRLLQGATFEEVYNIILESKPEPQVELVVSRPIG
Sequence of GST-LIM Mystique PDZ domain 1 (human) (chain, as listed by the source limits assumed): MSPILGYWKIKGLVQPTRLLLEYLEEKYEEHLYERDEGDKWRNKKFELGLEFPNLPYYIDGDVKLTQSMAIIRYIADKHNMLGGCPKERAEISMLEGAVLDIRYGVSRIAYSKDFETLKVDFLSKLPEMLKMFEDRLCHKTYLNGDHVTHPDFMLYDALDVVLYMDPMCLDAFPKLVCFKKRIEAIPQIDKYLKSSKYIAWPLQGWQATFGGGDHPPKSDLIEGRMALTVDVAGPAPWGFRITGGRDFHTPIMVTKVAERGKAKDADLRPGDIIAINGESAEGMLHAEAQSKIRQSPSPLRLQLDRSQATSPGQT
Experimental for EGFR: Lysates were subjected to immunoprecipitation with anti-EGFR or IgG as a control.
Equal amounts of cell lysate were incubated with anti-EGFR (Santa Cruz Biotechnology, Santa Cruz, Calif.) or mouse IgG. […] Reactivity was detected with a horseradish peroxidase-conjugated second antibody and chemiluminescence.
Experimental for FGFR3: Lysates were subjected to immunoprecipitation with anti-FGFR3 or IgG as a control.
Equal amounts of cell lysate were incubated with anti-FGFR3 or mouse IgG. […] Reactivity was detected with a horseradish peroxidase-conjugated second antibody and chemiluminescence.

B1: YGRKKRRQRRRSRTDRKYWA (SEQ ID NO: 148) (peptide)
peptide: YGRKKRRQRRRSRTDRKYWA
modifications: also: biotinylated (position not given here)
notes: TAT plus 9 residues; also called AVC#1832
The EC50 is the concentration needed to bring the measured effect to its halfway point. Read a high EC50 as weaker potency. B1 yielded an EC50 in experiment [1] of less than 10 nM.

B2: YGRKKRRQRRRSRTDRKYQI (SEQ ID NO: 155) (peptide)
peptide: YGRKKRRQRRRSRTDRKYQI
modifications: also: biotinylated (position not given here)
notes: TAT plus 9 residues; also called AVC#1839
In turn, B2 yielded an EC50 in experiment [1] of 22 nM.

B3: YGRKKRRQRRRQDERRLIVL (SEQ ID NO: 158) (peptide)
peptide: YGRKKRRQRRRQDERRLIVL
modifications: also: biotinylated (position not given here)
notes: TAT plus 9 residues; also called AVC#1842
As for B3, the EC50 in experiment [1] turned out to be 78 nM.

B4: YGRKKRRQRRRARGDRLVSL (SEQ ID NO: 159) (peptide)
peptide: YGRKKRRQRRRARGDRLVSL
modifications: also: biotinylated, position not given here
notes: TAT plus 9 residues; also called AVC#1843
The molecule B4 registered an EC50 in experiment [1] of 68 nM.

B5: Flag-MUC1-CD(1-68) (other)
chain: CQCRRKNYGQLDIFPARDTYHPMSEYPTYHTHGRYVPPSSTDRSPYEKVSAGNGGSSLSYTNPAVAAT
notes: also called pIRESpuro2-Flag-MUC1-CD(1-68); truncated MUC1 cytoplasmic domain; not shown: Flag tag
For the molecule B5, the binding result with EGFR and in the experiment with FGFR3 was “no binding” each time.

B6: YGRKKRRQRRRGMTSSSSVV (SEQ ID NO: 169) (peptide)
peptide: YGRKKRRQRRRGMTSSSSVV
modifications: also: biotinylated, position not given here
notes: TAT plus 9 residues; also called AVC#1853
Turning to B6, the EC50 in experiment [1] is 135 nM.

B7: YGRKKRRQRRRSVTSTSINL (SEQ ID NO: 151) (peptide)
peptide: YGRKKRRQRRRSVTSTSINL
modifications: also: biotinylated (position not given here)
notes: TAT plus 9 residues; also called AVC#1835
On to B7, for which, in experiment [1], a half-maximal effect (EC50) was put at 90 nM. Compared with the last molecule, the EC50 is about 1.5-fold lower.

B8: YGRKKRRQRRRAVAATGIWA (SEQ ID NO: 143) (peptide)
peptide: YGRKKRRQRRRAVAATGIWA
modifications: also: biotinylated, position not given here
notes: TAT plus 9 residues; also called AVC#1827
B8: the EC50 in experiment [1] was less than 10 nM.

B9: YGRKKRRQRRRARGDRKRIV (SEQ ID NO: 136) (peptide)
peptide: YGRKKRRQRRRARGDRKRIV
modifications: also: biotinylated, position not given here
notes: also called AVC#1796; AVC 1796
As for B9, the EC50 (in experiment [1]; with GST-ZO-1 PDZ domain 2; in experiment [2]) was 20 nM each time.

B10: YGRKKRRQRRRARSDRKRIV (SEQ ID NO: 167) (peptide)
peptide: YGRKKRRQRRRARSDRKRIV
modifications: also: biotinylated, position not given here
notes: TAT plus 9 residues; also called AVC#1851
B10 yielded an EC50 in experiment [1] of 47 nM.

B11: YGRKKRRQRRRARGDRKRWA (SEQ ID NO: 140) (peptide)
peptide: YGRKKRRQRRRARGDRKRWA
modifications: also: biotinylated, position not given here
notes: TAT plus 9 residues; also called AVC#1821
The molecule B11 had a half-maximal effective concentration (EC50) in experiment [1] of 7 nM.

B12: YGRKKRRQRRRARGDRLEIV (SEQ ID NO: 163) (peptide)
peptide: YGRKKRRQRRRARGDRLEIV
modifications: also: biotinylated, position not given here
notes: TAT plus 9 residues; also called AVC#1847
Turning to B12, in experiment [1], the response was half-maximal at 132 nM (EC50).

B13: YGRKKRRQRRRARSDRGIWA (SEQ ID NO: 142) (peptide)
peptide: YGRKKRRQRRRARSDRGIWA
modifications: also: biotinylated, position not given here
notes: TAT plus 9 residues; also called AVC#1823
In experiment [1], B13 yielded an EC50 of less than 10 nM.

B14: YGRKKRRQRRRARSDRTIWA (SEQ ID NO: 145) (peptide)
peptide: YGRKKRRQRRRARSDRTIWA
modifications: also: biotinylated, position not given here
notes: TAT plus 9 residues; also called AVC#1829
Molecule B14 showed an EC50 in experiment [1] of less than 10 nM.

B15: YGRKKRRQRRRARGDRKKIV (SEQ ID NO: 166) (peptide)
peptide: YGRKKRRQRRRARGDRKKIV
modifications: also: biotinylated, position not given here
notes: TAT plus 9 residues; also called AVC#1850
As to B15, the EC50 in experiment [1] turned out to be 47 nM. That is a double-digit nanomolar value.

B16: YGRKKRRQRRRARSDRKRIA (SEQ ID NO: 147) (peptide)
peptide: YGRKKRRQRRRARSDRKRIA
modifications: also: biotinylated, position not given here
notes: TAT plus 9 residues; also called AVC#1831
B16: the EC50 in experiment [1] worked out at 45 nM.

B17: YGRKKRRQRRRARGDRKVPV (SEQ ID NO: 157) (peptide)
peptide: YGRKKRRQRRRARGDRKVPV
modifications: also: biotinylated, position not given here
notes: TAT plus 9 residues; also called AVC#1841
For the molecule B17, in experiment [1], the EC50 was determined as 45 nM.

B18: YGRKKRRQRRRARGDRRRIV (SEQ ID NO: 165) (peptide)
peptide: YGRKKRRQRRRARGDRRRIV
modifications: also: biotinylated, position not given here
notes: TAT plus 9 residues; also called AVC#1849
The molecule B18 displayed an EC50 in experiment [1] of 37 nM.

B19: YGRKKRRQRRRARGDRYRIV (SEQ ID NO: 161) (peptide)
peptide: YGRKKRRQRRRARGDRYRIV
modifications: also: biotinylated, position not given here
notes: TAT plus 9 residues; also called AVC#1845
In experiment [1], B19 gave a half-maximal effective concentration (EC50) of 38 nM.

B20: YGRKKRRQRRRARSDRTIIA (SEQ ID NO: 146) (peptide)
peptide: YGRKKRRQRRRARSDRTIIA
modifications: also: biotinylated, position not given here
notes: TAT plus 9 residues; also called AVC#1830
Take B20: the EC50 in experiment [1] was determined as 13 nM.

B21: YGRKKRRQRRRARGDRKIRV (SEQ ID NO: 152) (peptide)
peptide: YGRKKRRQRRRARGDRKIRV
modifications: also: biotinylated, position not given here
notes: TAT plus 9 residues; also called AVC#1836
In turn, B21 had an EC50 in experiment [1] of 10 nM.

B22: YGRKKRRQRRRARGDRTIIY (SEQ ID NO: 164) (peptide)
peptide: YGRKKRRQRRRARGDRTIIY
modifications: also: biotinylated, position not given here
notes: TAT plus 9 residues; also called AVC#1848
The molecule B22 came in with an EC50 in experiment [1] of 30 nM.

B23: YGRKKRRQRRRARGDRKRWL (SEQ ID NO: 141) (peptide)
peptide: YGRKKRRQRRRARGDRKRWL
modifications: also: biotinylated, position not given here
notes: TAT plus 9 residues; also called AVC#1822
With B23, the EC50 in experiment [1] was 8 nM.

B24: YGRKKRRQRRRARGDRKYIV (SEQ ID NO: 154) (peptide)
peptide: YGRKKRRQRRRARGDRKYIV
modifications: also: biotinylated, position not given here
notes: TAT plus 9 residues; also called AVC#1838
Take B24: the response in experiment [1] was half-maximal at 13 nM (EC50).

B25: YGRKKRRQRRRARTDRKVEV (SEQ ID NO: 153) (peptide)
peptide: YGRKKRRQRRRARTDRKVEV
modifications: also: biotinylated, position not given here
notes: TAT plus 9 residues; also called AVC#1837
B25 showed an EC50 in experiment [1] of 40 nM.

B26: YGRKKRRQRRRSRTVREIWA (SEQ ID NO: 150) (peptide)
peptide: YGRKKRRQRRRSRTVREIWA
modifications: also: biotinylated (position not given here)
notes: TAT plus 9 residues; also called AVC#1834
On to B26, for which the EC50 in experiment [1] is less than 10 nM.

B27: YGRKKRRQRRRQDERVETRV (SEQ ID NO: 171) (peptide)
peptide: YGRKKRRQRRRQDERVETRV
modifications: also: biotinylated (position not given here)
notes: TAT plus 9 residues; also called AVC#1855
B27 registered an EC50 in experiment [1] of 880 nM.

B28: YGRKKRRQRRRQDEEEGIWA (SEQ ID NO: 137) (peptide)
peptide: YGRKKRRQRRRQDEEEGIWA
modifications: also: biotinylated, position not given here
notes: also called AVC#1790; AVC 1790
As for B28, the EC50 in experiment [1] came to 5 nM; with GST-ZO-1 PDZ domain 2, 50 nM; in experiment [2] it was 5 nM.

B29: YGRKKRRQRRRQDEEETIWA (SEQ ID NO: 144) (peptide)
peptide: YGRKKRRQRRRQDEEETIWA
modifications: also: biotinylated (position not given here)
notes: TAT plus 9 residues; also called AVC#1828
For B29, the EC50 in experiment [1] was 240 nM.

B30: YGRKKRRQRRRQDEEEGIWS (SEQ ID NO: 149) (peptide)
peptide: YGRKKRRQRRRQDEEEGIWS
modifications: also: biotinylated, position not given here
notes: TAT plus 9 residues; also called AVC#1833
In experiment [1], B30 registered an EC50 of 50 nM. This EC50 lies about 4.8-fold lower than the previous one.

B31: YGRKKRRQRRRARGDVRLML (SEQ ID NO: 156) (peptide)
peptide: YGRKKRRQRRRARGDVRLML
modifications: also: biotinylated, position not given here
notes: TAT plus 9 residues; also called AVC#1840
For B31, the EC50 in experiment [1] was approximately 30 nM.

B32: YGRKKRRQRRRARGTRLVWV (SEQ ID NO: 160) (peptide)
peptide: YGRKKRRQRRRARGTRLVWV
modifications: also: biotinylated, position not given here
notes: TAT plus 9 residues; also called AVC#1844
In turn, B32 gave an EC50 in experiment [1] of less than 10 nM.

B33: MUC1 C-terminus peptide NGGSSLSYTNPAVAATSANL (SEQ ID NO: 96) (peptide)
peptide: NGGSSLSYTNPAVAATSANL
modifications: also: biotinylated, position not given here
notes: also called C-terminus of MUC1; MUC1 peptide
Molecule B33 gave an EC50 in experiment [3] of 10 nM. This lies in the double-digit nanomolar range.

B34: YGRKKRRQRRRLQRRRETQV (AVC#1856) (peptide)
peptide: YGRKKRRQRRRLQRRRETQV
modifications: also: biotinylated, position not given here
notes: TAT plus 9 residues
Turning to B34, the EC50 in experiment [1] is 33 nM. This counts as double-digit nanomolar.

B35: YGRKKRRQRRRAVAAASANL (SEQ ID NO: 135) (peptide)
peptide: YGRKKRRQRRRAVAAASANL
modifications: also: biotinylated, position not given here
For B35, in experiment [4], the binding result is given as “binds”.

B36: YGRKKRRQRRRAVAATYSNL (SEQ ID NO: 139) (peptide)
peptide: YGRKKRRQRRRAVAATYSNL
modifications: also: biotinylated, position not given here
notes: TAT plus 9 residues; also called AVC#1793
Molecule B36 gave a half-maximal effective concentration (EC50) in experiment [1] of 600 nM.

B37: YGRKKRRQRRRAVAATSINL (SEQ ID NO: 138) (peptide)
peptide: YGRKKRRQRRRAVAATSINL
modifications: also: biotinylated, position not given here
notes: TAT plus 9 residues; also called AVC#1791; AVC 1791
For the molecule B37, the EC50 in experiment [1] amounted to 40 nM; with GST-ZO-1 PDZ domain 2, 8 nM; in experiment [2] it was 40 nM.

B38: YGRKKRRQRRRKNKDKEYYV (SEQ ID NO: 168) (peptide)
peptide: YGRKKRRQRRRKNKDKEYYV
modifications: also: biotinylated, position not given here
notes: TAT plus 9 residues; also called AVC#1852
With B38, in experiment [1], a half-maximal effect (EC50) was put at 13 nM.

B39: YGRKKRRQRRRSRTDRLEYV (SEQ ID NO: 162) (peptide)
peptide: YGRKKRRQRRRSRTDRLEYV
modifications: also: biotinylated (position not given here)
notes: TAT plus 9 residues; also called AVC#1846
In turn, B39 showed an EC50 in experiment [1] of 10 nM.

These data come from patent US20080090770A1 (published 2008).
